Reference: paper PMC3102090, “Interaction between Amyloid Beta Peptide and an Aggregation Blocker Peptide Mimicking Islet Amyloid Polypeptide” (PLoS ONE, 2011)
Square brackets hold non-standard residues; d marks the D form. Ends that are not written are not given here. fluorescein = fluorescein (N-terminal label); NMeI = CC[C@H](C)[C@H](NC)C(=O)O; Sar = CNCC(=O)O

Assays:
[1] = tested on: Aβ and α-synuclein; settings: ref [41]; cited from earlier work
From the text: In agreement with their intrinsic aggregation propensities, the agg ...

[2] = tested on: IAPP; settings: ref [38]; cited from earlier work
[3] = cited from earlier work
From the text: Therefore, we needed to find an experimental condition under which these two peptides predominantly populate a monomeric state.

[4] = biological target: IAPP-GI (Fluos-IAPP-GI) (Homo sapiens) (UniProt P10997); assay: fluorescence titration; settings: cited from earlier work
[5] = biological target: Aβ40 (Homo sapiens, UniProt P05067); settings: Fluos-IAPP-GI (1 nM) titrated with low nano- to submicromolar Aβ40; fluorescence; ref [18]; read-out: app. Kd, IAPP-GI-Aβ40 interaction; cited from earlier work
[6] = Side chain 1H-15N HSQC of histidines of Aβ42; format: physicochemical; settings: 30 µM Aβ42, no IAPP-GI, pH 7.3, 278 K
Protocol: ^1H-^15N HSQC spectra of the side chains of histidines (H6, H13 and H14) were acquired on a Bruker AMX 600 MHz spectrometer equipped with a triple-resonance cryogenic probe. […] A 30 µM sample of Aβ42 was also measured. The INEPT transfer delay was selected as 27.8 ms, to obtain the coherence transfer from the ε1H and δ2H protons to the ε2N and δ1N through the ^2J coupling constant (Figure 1B). The carrier and SWH values were 5.00 ppm and 6010 Hz in the direct dimension, and 185.31 ppm and 9728 Hz in the indirect dimension. The experimental matrix was 2K*256 complex data points, which after apodization through a 90°-shifted squared sine bell function in both dimensions was transformed to a final matrix of 8K*512 data points.

[7] = CLEANEX-PM-FHSQC water-amide proton exchange; format: physicochemical; settings: 30 µM Aβ42, no IAPP-GI, pH 7.3, 278 K
Protocol: In a CLEANEX-PM-FHSQC experiment, exposed parts of the backbone gain high signal intensity already at short mixing times due to efficient exchange with water, while for more protected groups the signal intensity only rises at longer mixing times.
To this end, CLEANEX-PM-FHSQC experiments were recorded on a Bruker Avance 600 MHz spectrometer equipped with a triple-resonance room temperature probe. […] The intensity of peaks as a function of mixing time was fitted to the following equation: [drawing 1] (1) where V0 is the intensity of the peak in a control FHSQC experiment, k is the normalized rate constant related to the forward exchange rate constant between water and NH protons, and R1A and R1B are apparent longitudinal relaxation rates for protein and water [32].

Chain of Aβ40 (P05067 672-711 limits assumed): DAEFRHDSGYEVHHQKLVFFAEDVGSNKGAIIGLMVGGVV
Chain of IAPP-GI (Fluos-IAPP-GI) (Homo sapiens) (P10997 32-73): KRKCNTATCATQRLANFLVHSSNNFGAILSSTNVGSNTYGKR
Chain of Amyloid beta 40 1-40 (P05067 1-40): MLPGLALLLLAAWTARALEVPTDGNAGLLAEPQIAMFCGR

For `O=C(O[C@@H]1Cc2c(O)cc(O)cc2O[C@@H]1c1cc(O)c(O)c(O)c1)c1cc(O)c(O)c(O)c1` [(-)-epigallocatechin gallate], the “redirection of Aβ and α-synuclein into off-pathway oligomers” value [1] is given as “redirection of Aβ and α-synuclein into off-pathway oligomers”.

In the case of “N-terminal part (residues 1–28): N-terminal part of Aβ (residues 1–28)”, the “affinity of N-terminal part of Aβ for IAPP” value [2] is listed as “low µM affinity”.

In the case of “human IAPP: Islet Amyloid Polypeptide, hydrophobic strongly amyloidogenic peptide produced in the pancreatic islet cells (KCNTATCATQRLANFLVHSSNNFGAILSSTNVGSNTY; not fully specified (C-terminus, bridges); cysteine pairing not given here; UniProt P10997 34-70, looked up)”, the “assembly state of human IAPP” value ([3]; neutral pH, 4°C, concentration as high as 255 µM (1 mg/mL), analytical ultracentrifugation and diffusion NMR, ref [24], [25]) is listed as “kinetically stable state consisting of monomers and high molecular weight oligomers” and the “self-association of human IAPP” value ([3]; temperatures above 20°C, ref [24]-[27]) is listed as “rapidly drives monomeric IAPP molecules toward oligo- and multimerization”.

For “Amyloid beta 40 1-40 (from UniProt P05067)”, the Kd [4] is listed as 41.2 nM.

In the case of “Fluos-IAPP-GI: N-terminal fluorescein labeled IAPP-GI (fluorescein-KCNTATCATQRLANFLVHSSNNF[Sar]A[NMeI]LSSTNVGSNTY; ends and bridges not checked)”, the Kd [5] is listed as 50 nM.

For “Aβ42: amyloid-beta peptide; 15N-uniformly labeled Aβ1-42 purchased from rPeptide”, the “histidine side-chain peak pattern of pure Aβ42” value [6] was “very similar to that of Aβ40 with IAPP-GI” and the “water-amide proton exchange rates of Aβ42 compared with Aβ40” value [7] was “the exchange rates are reduced in regions (Figure 9) that are also affected upon addition of IAPP-GI to Aβ40”.
